Measured values published in patent US8691944.

What was measured:
[1] = molecular target: transforming growth factor-β1 (TGF-β1) (UniProt P01137); experiment: equilibrium or kinetic binding, not said which
[2] = molecular target: basic fibroblast growth factor (bFGF, FGF-2) (UniProt P09038); experiment: equilibrium or kinetic binding, not said which
[3] = molecular target: platelet-derived growth factor-BB (PDGF-BB) (UniProt P01127); experiment: equilibrium binding
[4] = molecular target: vascular endothelial growth factor A (VEGF-A) (UniProt P15692); experiment: binding assay, method not restated
Chain of vascular endothelial growth factor A (VEGF-A) (P15692 other isoform, or with tags, fused parts or gaps limits assumed): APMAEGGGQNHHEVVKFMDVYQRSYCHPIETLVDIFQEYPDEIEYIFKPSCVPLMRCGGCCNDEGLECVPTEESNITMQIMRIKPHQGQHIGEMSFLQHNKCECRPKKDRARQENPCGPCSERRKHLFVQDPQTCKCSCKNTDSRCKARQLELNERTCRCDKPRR

[5] = molecular target: transforming growth factor-β1 (TGF-β1) (UniProt P01137); experiment: binding assay, method not restated
[6] = molecular target: platelet-derived growth factor-BB (PDGF-BB) (UniProt P01127); experiment: binding assay, method not restated
[7] = molecular target: basic fibroblast growth factor (bFGF, FGF-2) (UniProt P09038); experiment: binding assay, method not restated

Chain of transforming growth factor-β1 (TGF-β1) (P01137 279-390 limits assumed): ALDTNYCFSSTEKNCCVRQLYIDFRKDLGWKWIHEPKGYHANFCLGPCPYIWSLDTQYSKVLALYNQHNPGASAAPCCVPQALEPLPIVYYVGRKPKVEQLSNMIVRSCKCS
Chain of platelet-derived growth factor-BB (PDGF-BB) (P01127 82-190 limits assumed): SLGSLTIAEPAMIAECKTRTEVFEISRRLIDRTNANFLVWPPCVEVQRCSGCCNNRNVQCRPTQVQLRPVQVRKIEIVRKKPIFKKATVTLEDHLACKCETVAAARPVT
Chain of basic fibroblast growth factor (bFGF, FGF-2) (P09038 143-288 limits assumed): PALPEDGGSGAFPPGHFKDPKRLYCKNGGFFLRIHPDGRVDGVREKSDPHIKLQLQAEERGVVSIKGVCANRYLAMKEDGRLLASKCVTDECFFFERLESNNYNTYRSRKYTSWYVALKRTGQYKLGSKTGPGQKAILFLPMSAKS

## IIICS, variably-spliced domain of fibronectin (from UniProt P02751 2083-2202)
[1]
  Kd: 74 nM
[2]
  Kd: 58 nM
[3]
  Kd: 350 nM
[4]
  Kd: 100 nM
[5]
  Kd: 100 nM
[6]
  Kd: 100 nM
[7]
  Kd: 100 nM
